From the Immune Epitope Database (IEDB) come the findings set out here.

Some targets named below: HLA-A*03:01; HLA-A*11:01; HLA-A*31:01; HLA-A*33:01; HLA-A*68:01.
Holding throughout (assay): IEDB peptide-MHC binding, purified MHC/competitive/radioactivity; filed as Kd, often an IC50 or EC50 that approximates it; ≥ and ≤ were set here for values at or beyond the usual limits of such assays
[1] abbreviates: source organism: Vaccinia virus WR.
[2] abbreviates: source organism: Mammarenavirus machupoense.
Where [3] appears, read: source organism: Mammarenavirus brazilense.
[4] abbreviates: source organism: SARS coronavirus Tor2.
Where [5] appears, read: source organism: Dengue virus 1 Nauru/West Pac/1974.
Setting [6] is: source organism: Dengue virus 3 Martinique/1243/1999.
The mark [7] stands for this setting: source organism: Dengue virus 1 Brazil/97-11/1997.
[8] abbreviates: source organism: Dengue virus 2 Jamaica/1409/1983.
Setting [9] is: source organism: Dengue virus 4 Philippines/H241/1956.
Setting [10] is: source organism: Dengue virus 3 Sri Lanka/1266/2000.
The mark [11] stands for this setting: source organism: Lassa virus Josiah.

Broadly, the Kd is a measure of binding affinity in units of concentration. For NTMCTEETK, the equilibrium dissociation constant (Kd) in the assay with HLA-A*03:01 (setting [1]) was at least 78000 nM; with HLA-A*11:01 (setting [1]) it was 27.9 nM; with HLA-A*31:01 (setting [1]), at least 77900 nM; with HLA-A*33:01 (setting [1]), 15700 nM; with HLA-A*68:01 (setting [1]) it was 12.5 nM.

With SSFDYCSTNH, the Kd with HLA-A*03:01 (setting [2]) stood at 17100 nM; with HLA-A*11:01 (setting [2]) it was 1890 nM; with HLA-A*31:01 (setting [2]) it was 6320 nM; with HLA-A*33:01 (setting [2]), 15600 nM; in the assay with HLA-A*68:01 (setting [2]), 249 nM.

For the sequence YVNHTASGEH, the Kd with HLA-A*03:01 (setting [3]) is at least 70000 nM; in the assay with HLA-A*11:01 (setting [3]), at least 69700 nM; with HLA-A*31:01 (setting [3]) it was at least 70000 nM; with HLA-A*33:01 (setting [3]), at least 69000 nM; with HLA-A*68:01 (setting [3]), at least 21700 nM.

ATFIDVHIPK: the Kd in the assay with HLA-A*03:01 (setting [1]) is 9.21 nM; with HLA-A*11:01 (setting [1]) it was 0.269 nM; with HLA-A*31:01 (setting [1]) it was 915 nM; with HLA-A*33:01 (setting [1]) it was 43.4 nM; with HLA-A*68:01 (setting [1]), 3.44 nM.

Regarding QLQLLMPLK, the Kd was 151 nM in the assay with HLA-A*03:01 (setting [4]); 14.3 nM with HLA-A*11:01 (setting [4]); 1480 nM with HLA-A*31:01 (setting [4]); 2350 nM with HLA-A*33:01 (setting [4]); 13400 nM in the assay with HLA-A*68:01 (setting [4]).

VSTVSQLAK: in the assay with HLA-A*11:01 (setting [5]), the Kd turned out to be 248 nM.

Regarding TFQLLNMIK, the dissociation constant Kd with HLA-A*03:01 (setting [1]) worked out at 20.8 nM; with HLA-A*11:01 (setting [1]), 19.5 nM; with HLA-A*31:01 (setting [1]) it was 326 nM; with HLA-A*33:01 (setting [1]), 102 nM; with HLA-A*68:01 (setting [1]), 11.5 nM.

As to VLARWGTFK, the Kd amounted to 3.08 nM with HLA-A*03:01 (setting [6]) and 52.3 nM in the assay with HLA-A*11:01 (setting [6]).

Regarding DMSHLKVALY, the Kd was determined as 1810 nM in the assay with HLA-A*03:01 (setting [1]); 3950 nM with HLA-A*11:01 (setting [1]); 768 nM with HLA-A*31:01 (setting [1]); 14700 nM with HLA-A*33:01 (setting [1]); 854 nM with HLA-A*68:01 (setting [1]).

On to KLVYIFEPEK, for which the Kd was 53.7 nM with HLA-A*03:01 (setting [1]); 154 nM in the assay with HLA-A*11:01 (setting [1]); 9210 nM with HLA-A*31:01 (setting [1]); at least 70000 nM in the assay with HLA-A*33:01 (setting [1]); 1690 nM with HLA-A*68:01 (setting [1]).

As to KSIQKNTIFK, the Kd with HLA-A*11:01 (setting [2]) came out at 5.35 nM.

Consider FIRRKYLIY, for which the Kd is 1500 nM with HLA-A*03:01 (setting [1]); at least 26900 nM with HLA-A*11:01 (setting [1]); at least 77900 nM with HLA-A*31:01 (setting [1]); at least 52400 nM with HLA-A*33:01 (setting [1]); at least 53500 nM with HLA-A*68:01 (setting [1]).

Consider LTRNPAWRK, for which the Kd with HLA-A*03:01 (setting [4]) is 222 nM; in the assay with HLA-A*11:01 (setting [4]) it was 3950 nM; with HLA-A*31:01 (setting [4]) it was 5020 nM; with HLA-A*33:01 (setting [4]) it was 1570 nM; in the assay with HLA-A*68:01 (setting [4]), 1420 nM.

With RVMANNVKKK, the Kd in the assay with HLA-A*03:01 (setting [1]) was 103 nM; with HLA-A*11:01 (setting [1]), 96 nM; with HLA-A*31:01 (setting [1]) it was 760 nM; with HLA-A*33:01 (setting [1]), at least 28200 nM; with HLA-A*68:01 (setting [1]) it was 539 nM.

RIENEMKINR: the Kd with HLA-A*03:01 (setting [1]) was 5560 nM; with HLA-A*11:01 (setting [1]), 2570 nM; in the assay with HLA-A*31:01 (setting [1]) it was 183 nM; in the assay with HLA-A*33:01 (setting [1]), 10800 nM; with HLA-A*68:01 (setting [1]), 803 nM.

On to TLFVWYFWQK, for which the Kd with HLA-A*03:01 (setting [7]) turned out to be 24.6 nM; with HLA-A*11:01 (setting [7]), 54.8 nM.

For VSILASSLLK, the Kd amounted to 9 nM in the assay with HLA-A*03:01 (setting [8]) and 26.2 nM with HLA-A*11:01 (setting [8]).

For MSAAIKDQK, the Kd in the assay with HLA-A*11:01 (setting [9]) was determined as 480 nM; with HLA-A*68:01 (setting [9]) it was 50.9 nM.

As for LALGFFLRK, the Kd with HLA-A*03:01 (setting [6]) was determined as 3.33 nM; in the assay with HLA-A*11:01 (setting [6]), 9.58 nM.

On to DYMPSMKRFR, for which the Kd with HLA-A*31:01 (setting [8]) worked out at 43.5 nM; in the assay with HLA-A*33:01 (setting [8]) it was 1.97 nM.

As to ASNAPSAAK, the Kd in the assay with HLA-A*11:01 (source organism: Homo sapiens) stood at 14 nM.

For RLQLSNGNR, in the assay with HLA-A*03:01 (source organism: Homo sapiens), the Kd was determined as 407 nM.

Turning to VSTGSQLAK, the Kd was found to be 127 nM with HLA-A*03:01 (setting [7]) and 332 nM with HLA-A*11:01 (setting [7]).

Take LITENKIWGR: in the assay with HLA-A*31:01 (setting [5]), the dissociation constant (Kd) is at least 21100 nM.

For the sequence TLSLDYAWK, in the assay with HLA-A*03:01 (setting [7]), the Kd came out at 181 nM.

For EVMRGKFGK, the results for the Kd with HLA-A*11:01 (setting [6]) and with HLA-A*68:01 (setting [6]) were 850 nM and 55.7 nM, respectively.

Consider KVTEVKGYTK, for which the Kd in the assay with HLA-A*11:01 (setting [7]) was 212 nM.

As for ETTHHAVSR, the dissociation constant Kd with HLA-A*33:01 (setting [10]) was 4.66 nM; with HLA-A*68:01 (setting [10]), 19 nM.

With MSAAIKDNR, the Kd in the assay with HLA-A*31:01 (setting [8]) amounted to 8.82 nM; in the assay with HLA-A*68:01 (setting [8]) it was 14.4 nM.

Take HMFAGHLKCK: in the assay with HLA-A*03:01 (setting [9]), the Kd turned out to be 7.4 nM.

Take GSQLAKRFSK: in the assay with HLA-A*11:01 (setting [7]), the Kd came out at 108 nM.

EINKNPKYK: the Kd with HLA-A*03:01 (source organism: Homo sapiens) came out at 753 nM.

With ALMSIISTFH, the Kd in the assay with HLA-A*03:01 (setting [11]) came out at 617 nM; with HLA-A*33:01 (setting [11]), 3610 nM.

Turning to AVMDIISRK, the Kd is 4.94 nM in the assay with HLA-A*03:01 (setting [9]) and 107 nM with HLA-A*11:01 (setting [9]).

Consider KVVDLGCGR, for which the Kd with HLA-A*31:01 (setting [8]) was 1.29 nM.

Consider SQGAGWSLK, for which the Kd with HLA-A*11:01 (setting [8]) was 77.7 nM.

Turning to DIISRRDQR, the Kd is 105 nM with HLA-A*33:01 (setting [8]) and 36.1 nM with HLA-A*68:01 (setting [8]).

Turning to TTKRDLGMSK, the Kd with HLA-A*11:01 (setting [6]) stood at 115 nM.

YVFSGDPLK: the values for the Kd with HLA-A*03:01 (setting [9]), with HLA-A*11:01 (setting [9]) and with HLA-A*68:01 (setting [9]) were 84.4 nM, 159 nM and 12.4 nM, respectively.

On to MLSIINKRKK, for which the Kd with HLA-A*03:01 (setting [6]) turned out to be 524 nM.

Take YQNKVVRVQR: the dissociation constant (Kd) with HLA-A*31:01 (setting [8]) is at least 36700 nM.

Regarding GSCVYNMMGK, the values for the Kd in the assay with HLA-A*03:01 (setting [6]) and with HLA-A*11:01 (setting [6]) were 104 nM and 25.8 nM, respectively.
